According to paper PMC12813979, “A Site-Specific Self-Association of a Protein Hub Drives Its Phase Separation” (ACS Chemical Biology, 2025):
* marks the point of attachment. Biotin = O=C1N[C@H]2[C@H](CS[C@H]2CCCCC(=O)*)N1

Key:
[1] = molecular target: WD40 repeat protein 5 (WDR5), full-length (human, UniProt P61964 1-334); assay: BLI; biotinylated MLL3Win peptide immobilised on streptavidin sensors; WDR5 (0.11-9.0 µM) or ΔN-WDR5 (0.10-9.0 µM) in the wells; 150 mM KCl, 20 mM Tris-HCl, 1 mM TCEP, 1 mg/mL BSA, pH 7.5; global fit of kon and koff, KD derived indirectly from them; triplicates; conditions: both partners purified
[2] = molecular target: N-terminus truncated WDR5, WDR5 23-334 (human, UniProt P61964 23-334); assay: as above; conditions: both partners purified

- Kd [1]: 190 nM
- koff [1]: 0.012 s⁻¹
- kon [1]: 66000 M⁻¹ s⁻¹
- Kd [2]: 170 nM
- koff [2]: 0.0097 s⁻¹
- kon [2]: 63000 M⁻¹ s⁻¹
B1: Win-like motif-based peptide ligand of mixed lineage leukemia 3 (MLL3Win) (peptide)
chain: Biotin-VNPTGCARSEPKMS-NH2
SMILES: CSCC[C@H](NC(=O)[C@H](CCCCN)NC(=O)[C@@H]1CCCN1C(=O)[C@H](CCC(=O)O)NC(=O)[C@H](CO)NC(=O)[C@H](CCCNC(=N)N)NC(=O)[C@H](C)NC(=O)[C@H](CS)NC(=O)CNC(=O)[C@@H](NC(=O)[C@@H]1CCCN1C(=O)[C@H](CC(N)=O)NC(=O)[C@@H](NC(=O)CCCC[C@@H]1SC[C@@H]2NC(=O)N[C@@H]21)C(C)C)[C@@H](C)O)C(=O)N[C@@H](CO)C(N)=O
